Ends that are not written are not given here.
Tests used:
[1] = biological target: GXM-binding murine monoclonal antibody 18B7 (mouse); assay: SPR; BIAcore 3000; antibody immobilised on a CM5 chip through primary amino groups; peptide P1 1.56 µM to 200 µM at 100 µl/min in 0.2 mM K2HPO4/KH2PO4 pH 6.5, 150 mM KCl, 0.01% Tween 20; 25°C; global fit to a two-state model, equilibrium constants calculated from the rate constants
[2] = biological target: Mouse-human chimeric antibody 18B7 (IgG1) (mouse | human); assay: as above
[3] = biological target: deglycosylated form of mAb 18B7 (mouse); assay: as above
[4] = biological target: T1, thyroglobulin (Bos taurus (assumed), UniProt P01267); assay: ELISA; polystyrene plates coated overnight at 4°C with antigen at 5 µg/ml in bicarbonate buffer pH 9.6; blocked with 1% BSA in TBS; Abs added at 40 µg/ml in 1% BSA/TBS and serially diluted, overnight at 4°C; alkaline-phosphatase conjugated anti-mouse or anti-human IgG; settings: both partners purified
T1 construct: thyroglobulin (Sigma); source: bought: Sigma
T1 sequence (P01267 20-2769): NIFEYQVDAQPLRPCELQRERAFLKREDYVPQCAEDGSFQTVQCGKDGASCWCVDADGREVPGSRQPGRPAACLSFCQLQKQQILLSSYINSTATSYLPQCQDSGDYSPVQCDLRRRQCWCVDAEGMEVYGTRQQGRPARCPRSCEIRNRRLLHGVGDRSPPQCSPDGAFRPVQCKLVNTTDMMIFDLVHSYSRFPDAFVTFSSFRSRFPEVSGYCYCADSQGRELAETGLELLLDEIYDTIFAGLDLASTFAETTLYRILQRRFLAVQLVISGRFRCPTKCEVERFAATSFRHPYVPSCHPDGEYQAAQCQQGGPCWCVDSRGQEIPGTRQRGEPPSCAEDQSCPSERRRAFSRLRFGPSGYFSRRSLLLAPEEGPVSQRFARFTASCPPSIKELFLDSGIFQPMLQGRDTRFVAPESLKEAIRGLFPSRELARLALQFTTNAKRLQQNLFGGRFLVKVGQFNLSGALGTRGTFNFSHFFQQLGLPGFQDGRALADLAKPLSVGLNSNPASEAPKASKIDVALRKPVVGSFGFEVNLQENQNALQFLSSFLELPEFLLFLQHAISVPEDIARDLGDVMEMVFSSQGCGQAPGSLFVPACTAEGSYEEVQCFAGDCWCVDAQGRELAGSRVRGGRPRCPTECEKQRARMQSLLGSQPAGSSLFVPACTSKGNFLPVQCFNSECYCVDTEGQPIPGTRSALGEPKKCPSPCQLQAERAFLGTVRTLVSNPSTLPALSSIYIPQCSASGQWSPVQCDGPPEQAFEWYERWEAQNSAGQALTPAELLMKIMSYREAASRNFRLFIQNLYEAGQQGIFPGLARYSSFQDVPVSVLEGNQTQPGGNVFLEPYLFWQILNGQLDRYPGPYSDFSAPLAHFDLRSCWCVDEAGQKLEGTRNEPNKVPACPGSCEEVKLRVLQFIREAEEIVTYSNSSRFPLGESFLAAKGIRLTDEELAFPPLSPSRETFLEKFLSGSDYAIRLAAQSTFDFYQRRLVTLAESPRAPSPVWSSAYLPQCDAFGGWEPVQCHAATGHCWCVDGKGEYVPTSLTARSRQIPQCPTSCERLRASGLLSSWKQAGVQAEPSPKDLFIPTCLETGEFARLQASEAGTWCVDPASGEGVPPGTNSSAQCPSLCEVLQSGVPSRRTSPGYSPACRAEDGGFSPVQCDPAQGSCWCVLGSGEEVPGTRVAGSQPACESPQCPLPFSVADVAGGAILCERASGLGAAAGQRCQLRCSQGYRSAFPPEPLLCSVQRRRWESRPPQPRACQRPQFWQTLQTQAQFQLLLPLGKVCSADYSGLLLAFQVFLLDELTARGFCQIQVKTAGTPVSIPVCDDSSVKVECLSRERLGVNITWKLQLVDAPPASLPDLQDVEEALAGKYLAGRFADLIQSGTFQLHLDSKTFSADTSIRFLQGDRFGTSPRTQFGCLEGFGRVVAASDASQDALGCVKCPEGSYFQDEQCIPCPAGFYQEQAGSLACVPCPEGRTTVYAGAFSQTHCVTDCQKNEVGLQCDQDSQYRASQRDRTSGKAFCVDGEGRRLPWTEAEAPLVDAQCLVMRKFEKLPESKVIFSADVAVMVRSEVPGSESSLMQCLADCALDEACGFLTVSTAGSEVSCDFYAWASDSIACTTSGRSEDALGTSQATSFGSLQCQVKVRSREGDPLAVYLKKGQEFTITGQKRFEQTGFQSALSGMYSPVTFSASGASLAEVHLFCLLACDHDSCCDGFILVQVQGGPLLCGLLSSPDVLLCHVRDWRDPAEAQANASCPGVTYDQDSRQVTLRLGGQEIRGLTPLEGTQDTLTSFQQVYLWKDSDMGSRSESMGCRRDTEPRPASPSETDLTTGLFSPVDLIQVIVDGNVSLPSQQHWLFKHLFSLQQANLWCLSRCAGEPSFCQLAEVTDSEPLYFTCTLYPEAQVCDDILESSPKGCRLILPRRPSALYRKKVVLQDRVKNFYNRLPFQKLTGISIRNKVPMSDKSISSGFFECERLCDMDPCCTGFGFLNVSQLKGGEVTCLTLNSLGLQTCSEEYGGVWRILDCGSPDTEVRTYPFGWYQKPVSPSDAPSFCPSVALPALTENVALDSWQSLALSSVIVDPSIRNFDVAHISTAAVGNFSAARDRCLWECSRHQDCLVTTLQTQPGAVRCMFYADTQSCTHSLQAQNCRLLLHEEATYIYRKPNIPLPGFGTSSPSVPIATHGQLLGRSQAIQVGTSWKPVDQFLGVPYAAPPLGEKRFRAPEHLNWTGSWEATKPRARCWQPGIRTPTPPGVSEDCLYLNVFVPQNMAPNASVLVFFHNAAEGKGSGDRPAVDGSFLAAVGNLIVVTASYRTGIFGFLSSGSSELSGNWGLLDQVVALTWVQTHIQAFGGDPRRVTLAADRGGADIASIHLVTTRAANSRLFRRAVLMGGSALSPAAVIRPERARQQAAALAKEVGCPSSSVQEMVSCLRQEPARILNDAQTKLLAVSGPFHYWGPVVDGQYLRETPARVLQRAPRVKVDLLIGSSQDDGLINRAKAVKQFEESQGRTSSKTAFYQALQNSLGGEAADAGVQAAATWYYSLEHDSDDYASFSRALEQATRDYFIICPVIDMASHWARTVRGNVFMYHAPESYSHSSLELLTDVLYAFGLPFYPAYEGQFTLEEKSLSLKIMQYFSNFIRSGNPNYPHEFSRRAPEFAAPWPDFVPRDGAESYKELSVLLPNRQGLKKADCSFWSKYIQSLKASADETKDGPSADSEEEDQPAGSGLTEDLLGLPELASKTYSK

Row | Binder | Kd [1] [mM] | Kd [2] [mM] | Kd [3] [mM] | binding result [4]
1 | SPNQHTPPWMLK (also: biotinylated, position not given here) [Peptide mimetic of GXM P1] | 2.33 | 0.541 | 1.07 | –
2 | Mouse-human chimeric antibody 18B7 (IgG1) (antibody, V domains shown, as the VH of m1 (identical V regions); human IgG1 (γ1) heavy chain constant region; as the VL of m1 (identical V regions); light chain constant region; IgG1; also called chAb 18B7; ch18B7; source: generated by cloning and transfection as described [36], purified by protein L agarose beads) VH: DVKLVESGGGLLKLGGSLKLSCVASGFSFSSYFMSWVRQTPEKRLELVAMINNNGDKTYYPDTVRGRFTISRDNAKNTLYLQMSSLKSEDTAMYYCARRDGTFGNHFDYWGQGTTLTVSS VL: DVVMTQAPLALPVSLGDQASISCRSSQSLAHSNGNTYLHWYLQKPGQSPKLLIYKVSNRFSGVPDRFSGSGSGTDFTLKISRVEAEDLGVYFCSQSTHVPWTFGGGTKLEIK | – | – | – | binds
3 | GXM-binding murine monoclonal antibody 18B7 (antibody, V domains shown, VH of mAb 18B7; murine IgG1 heavy chain constant region; VL of mAb 18B7; murine light chain constant region; Murine IgG1; also called mAb 18B7; m18B7) VH: DVKLVESGGGLLKLGGSLKLSCVASGFSFSSYFMSWVRQTPEKRLELVAMINNNGDKTYYPDTVRGRFTISRDNAKNTLYLQMSSLKSEDTAMYYCARRDGTFGNHFDYWGQGTTLTVSS VL: DVVMTQAPLALPVSLGDQASISCRSSQSLAHSNGNTYLHWYLQKPGQSPKLLIYKVSNRFSGVPDRFSGSGSGTDFTLKISRVEAEDLGVYFCSQSTHVPWTFGGGTKLEIK | – | – | – | binds
4 | deglycosylated form of mAb 18B7 (antibody, V domains shown, as the VH of m1; murine IgG1 heavy chain constant region, as in m1; as the VL of m1; as the light chain constant region of m1; Same chains as m1 without the N-glycan; PNGase F is known to turn the glycosylated Asn into Asp; also called 18B7dg; mAb 18B7dg; source: mAb 18B7 from hybridoma culture supernatants (protein G), incubated with PNGaseF at 37°C for 24 h, dialyzed against PBS) VH: DVKLVESGGGLLKLGGSLKLSCVASGFSFSSYFMSWVRQTPEKRLELVAMINNNGDKTYYPDTVRGRFTISRDNAKNTLYLQMSSLKSEDTAMYYCARRDGTFGNHFDYWGQGTTLTVSS VL: DVVMTQAPLALPVSLGDQASISCRSSQSLAHSNGNTYLHWYLQKPGQSPKLLIYKVSNRFSGVPDRFSGSGSGTDFTLKISRVEAEDLGVYFCSQSTHVPWTFGGGTKLEIK | – | – | – | binds
